According to paper PMC3553997 (Nucleic Acids Research, 2012):

Key:
[1] = target: T1, TreR (TM0393) (Thermotoga maritima, UniProt Q9WYM4); assay: EMSA, loss of operator DNA binding; details: 50 nM protein, TM0392/treT operator DNA; pH 8.0, 150 mM KCl, 5 mM MgCl2, 60°C
T1 sequence (Q9WYM4 1-371): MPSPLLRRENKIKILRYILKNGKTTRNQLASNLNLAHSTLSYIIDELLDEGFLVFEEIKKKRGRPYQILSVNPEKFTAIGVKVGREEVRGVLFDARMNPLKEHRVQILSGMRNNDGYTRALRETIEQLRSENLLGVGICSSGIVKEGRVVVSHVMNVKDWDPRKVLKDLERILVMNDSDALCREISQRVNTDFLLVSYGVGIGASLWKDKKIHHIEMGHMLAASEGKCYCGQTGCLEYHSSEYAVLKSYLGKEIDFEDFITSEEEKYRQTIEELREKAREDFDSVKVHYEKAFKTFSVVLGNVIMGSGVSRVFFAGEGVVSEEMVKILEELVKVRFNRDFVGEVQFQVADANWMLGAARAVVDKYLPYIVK

[2] = target: T2, BglR (Thermotoga maritima MSB8, UniProt Q9WXN9 1-381); assay: EMSA
T2 sequence: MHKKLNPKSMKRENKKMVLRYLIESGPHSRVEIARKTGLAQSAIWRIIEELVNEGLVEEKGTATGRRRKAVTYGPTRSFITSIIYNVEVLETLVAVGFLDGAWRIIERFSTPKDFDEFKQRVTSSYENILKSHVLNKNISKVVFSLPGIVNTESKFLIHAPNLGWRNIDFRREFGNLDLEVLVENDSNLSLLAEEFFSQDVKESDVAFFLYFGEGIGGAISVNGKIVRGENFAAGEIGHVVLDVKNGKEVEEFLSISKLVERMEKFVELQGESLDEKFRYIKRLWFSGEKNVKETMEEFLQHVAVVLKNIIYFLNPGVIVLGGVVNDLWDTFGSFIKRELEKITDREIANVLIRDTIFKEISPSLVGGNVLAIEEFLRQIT

[3] = target: T3, IolR (Thermotoga maritima MSB8, UniProt Q9WYP2 1-383); assay: EMSA
T3 sequence: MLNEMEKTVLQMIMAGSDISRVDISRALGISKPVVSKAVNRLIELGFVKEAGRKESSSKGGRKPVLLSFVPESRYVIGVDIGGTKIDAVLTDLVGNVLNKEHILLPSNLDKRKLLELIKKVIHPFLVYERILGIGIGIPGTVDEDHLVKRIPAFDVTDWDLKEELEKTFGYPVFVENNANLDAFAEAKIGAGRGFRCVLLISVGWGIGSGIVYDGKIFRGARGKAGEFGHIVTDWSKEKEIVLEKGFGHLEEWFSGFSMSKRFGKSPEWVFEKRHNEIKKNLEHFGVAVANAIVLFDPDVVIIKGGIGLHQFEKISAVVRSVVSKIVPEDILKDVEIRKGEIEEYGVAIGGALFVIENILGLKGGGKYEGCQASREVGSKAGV

[4] = target: T4, XylR (Thermotoga maritima MSB8, UniProt Q9WXW5 1-378); assay: EMSA
T4 sequence: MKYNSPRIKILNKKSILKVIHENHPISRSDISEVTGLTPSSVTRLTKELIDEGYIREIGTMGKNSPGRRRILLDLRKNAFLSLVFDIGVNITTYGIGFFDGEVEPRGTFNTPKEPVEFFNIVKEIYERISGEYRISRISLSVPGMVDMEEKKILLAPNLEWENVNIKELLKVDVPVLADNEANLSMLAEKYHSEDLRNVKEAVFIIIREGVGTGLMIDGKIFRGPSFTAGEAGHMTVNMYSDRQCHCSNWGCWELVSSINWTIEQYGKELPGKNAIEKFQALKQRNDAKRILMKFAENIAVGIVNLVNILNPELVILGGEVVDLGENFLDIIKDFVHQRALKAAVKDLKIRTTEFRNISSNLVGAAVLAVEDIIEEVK

[5] = target: T5, ManR (Thermotoga maritima, UniProt Q9X0V1 1-368); assay: EMSA
T5 sequence: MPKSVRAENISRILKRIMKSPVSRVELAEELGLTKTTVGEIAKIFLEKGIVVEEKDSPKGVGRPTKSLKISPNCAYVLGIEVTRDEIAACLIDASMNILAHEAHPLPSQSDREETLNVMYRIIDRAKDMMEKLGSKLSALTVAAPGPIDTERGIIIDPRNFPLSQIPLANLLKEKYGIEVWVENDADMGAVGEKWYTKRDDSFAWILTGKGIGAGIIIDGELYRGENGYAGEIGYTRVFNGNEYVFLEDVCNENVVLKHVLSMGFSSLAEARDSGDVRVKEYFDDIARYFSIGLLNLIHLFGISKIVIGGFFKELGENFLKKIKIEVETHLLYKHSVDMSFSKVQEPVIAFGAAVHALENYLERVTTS

[6] = target: T6, ChiR (Thermotoga maritima, UniProt Q9WZR5 1-355); assay: EMSA
T6 sequence: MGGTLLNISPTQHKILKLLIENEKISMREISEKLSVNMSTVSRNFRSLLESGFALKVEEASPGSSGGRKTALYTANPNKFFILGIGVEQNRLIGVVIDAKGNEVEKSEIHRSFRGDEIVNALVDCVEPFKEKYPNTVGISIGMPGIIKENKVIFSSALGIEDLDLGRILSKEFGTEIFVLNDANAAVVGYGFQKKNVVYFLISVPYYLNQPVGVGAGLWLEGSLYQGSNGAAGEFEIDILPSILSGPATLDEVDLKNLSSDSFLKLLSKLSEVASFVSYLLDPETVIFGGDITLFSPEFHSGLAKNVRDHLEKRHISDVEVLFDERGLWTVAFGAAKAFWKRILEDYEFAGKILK

[7] = target: T7, TreR (Thermotoga maritima, UniProt Q9WYM4 1-371); assay: EMSA
T7 sequence: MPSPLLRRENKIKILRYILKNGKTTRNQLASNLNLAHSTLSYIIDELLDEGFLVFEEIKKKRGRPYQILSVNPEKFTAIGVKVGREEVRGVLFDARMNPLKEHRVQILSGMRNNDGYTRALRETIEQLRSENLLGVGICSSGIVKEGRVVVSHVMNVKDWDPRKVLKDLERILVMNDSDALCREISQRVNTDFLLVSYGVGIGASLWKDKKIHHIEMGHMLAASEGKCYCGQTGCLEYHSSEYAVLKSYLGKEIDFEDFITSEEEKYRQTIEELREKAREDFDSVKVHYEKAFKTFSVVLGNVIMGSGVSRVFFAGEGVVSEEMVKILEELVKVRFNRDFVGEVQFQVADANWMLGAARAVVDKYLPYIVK

OC[C@H]1O[C@H](O[C@H]2O[C@H](CO)[C@@H](O)[C@H](O)[C@H]2O)[C@H](O)[C@@H](O)[C@@H]1O [Trehalose]
Tested potential ligands / (Sugar) [1]: 0.2 mM

B1: bglR site (dsDNA)
DNA 1: GAGTCATATCGTTATAATTTCTTTCTGAGGAAGATAGATAAGAAGCAGG
DNA 2: CCTGCTTCTTATCTATCTTCCTCAGAAAGAAATTATAACGATATGACTC
binding signal [2]: 2.5 nM

B2: iolR site (dsDNA)
DNA 1: TAGTTGACAAATTGATTATAATGTGGTTGGTTAGTTAACGATAACAAACGAAAGGAATGGAAAAATGCTGAAT
DNA 2: ATTCAGCATTTTTCCATTCCTTTCGTTTGTTATCGTTAACTAACCAACCACATTATAATCAATTTGTCAACTA
binding signal [3]: 2.5 nM

B3: xylR site (dsDNA)
DNA 1: ACCTTGATTTTAAATTATTTCCTGCATATAATTAATGTGAACATAATAT
DNA 2: ATATTATGTTCACATTAATTATATGCAGGAAATAATTTAAAATCAAGGT
binding signal [4]: 2.5 nM

B4: xylA site (dsDNA)
DNA 1: CCCAAGATTTTATATAATTGATTGATAGAAAAAATTTAGGGAGGTGTTT
DNA 2: AAACACCTCCCTAAATTTTTTCTATCAATCAATTATATAAAATCTTGGG
binding signal [4]: 5 nM

B5: xloE site (dsDNA)
DNA 1: AGATTTACATTAAAATATTTCCCGAAAGGAAAAAATATAACATACAATC
DNA 2: GATTGTATGTTATATTTTTTCCTTTCGGGAAATATTTTAATGTAAATCT
binding signal [4]: 5 nM

B6: manB site (dsDNA)
DNA 1: CGATGACCCTGATAAATAAGTAAAGTTTACTAATTAACGGGAGGTATCG
DNA 2: CGATACCTCCCGTTAATTAGTAAACTTTACTTATTTATCAGGGTCATCG
binding signal [5]: 10 nM

B7: xynA site (dsDNA)
DNA 1: TCGAAGAAGCTCAATTTTTTCTTTACAAAAAATAACTTTAGGGTGATAT
DNA 2: ATATCACCCTAAAGTTATTTTTTGTAAAGAAAAAATTGAGCTTCTTCGA
binding signal [4]: 2.5 nM

B8: chiR site (dsDNA)
DNA 1: ACAATAATTTATGAAGTTGTTTGCGGCATGCAACTAACTGATGGGAGGG
DNA 2: CCCTCCCATCAGTTAGTTGCATGCCGCAAACAACTTCATAAATTATTGT
binding signal [6]: 0.5 nM

B9: mtpE site (dsDNA)
DNA 1: TAACATAATCTTTTTATTAGTAAGTGTTATTTATTAACATCCATTTAAA
DNA 2: TTTAAATGGATGTTAATAAATAACACTTACTAATAAAAAGATTATGTTA
binding signal [5]: 25 nM

B10: treT site (dsDNA)
DNA 1: TGATTAATTGTGTATTAATTCAAGTTACGAATAAATTTGGGAGGGATCA
DNA 2: TGATCCCTCCCAAATTTATTCGTAACTTGAATTAATACACAATTAATCA
binding signal [7]: 10 nM
